Positions count from the first letter of the chain named.
How the values were obtained:
[1] = target: T1, recombinant purified human IL-12 p70 (human, UniProt P29459 23-219); assay: SPR (Biacore) as in Example 1.1.B, human IL-12p70
T1 construct: Disulfide-linked heterodimer of p35 and p40; also called hIL-12; Hu IL-12
T1 sequence 1: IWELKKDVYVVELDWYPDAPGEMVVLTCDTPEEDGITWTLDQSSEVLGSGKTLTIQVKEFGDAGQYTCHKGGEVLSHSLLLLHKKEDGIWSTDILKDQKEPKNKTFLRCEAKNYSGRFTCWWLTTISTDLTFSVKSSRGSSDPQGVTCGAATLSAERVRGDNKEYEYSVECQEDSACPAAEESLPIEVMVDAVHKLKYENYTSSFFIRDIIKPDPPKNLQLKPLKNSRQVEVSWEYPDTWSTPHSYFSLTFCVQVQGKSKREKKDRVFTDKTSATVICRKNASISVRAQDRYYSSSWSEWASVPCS
T1 sequence 2: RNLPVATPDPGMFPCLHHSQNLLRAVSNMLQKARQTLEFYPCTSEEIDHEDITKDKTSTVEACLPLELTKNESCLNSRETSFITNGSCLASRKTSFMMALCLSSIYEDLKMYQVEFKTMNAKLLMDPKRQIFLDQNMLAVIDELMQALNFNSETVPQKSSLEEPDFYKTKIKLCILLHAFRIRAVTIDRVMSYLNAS
Description: Approximately 5000 RU of goat anti-mouse IgG, (Fcγ), fragment specific polyclonal antibody (Pierce Biotechnology Inc, Rockford, Ill.) diluted in 10 mM sodium acetate (pH 4.5) was directly immobilized across a CM5 research grade biosensor chip using a standard amine coupling kit according to manufacturer's instructions and procedures at 25 μg/ml. Unreacted moieties on the biosensor surface were blocked with ethanolamine. Modified carboxymethyl dextran surface in flowcell 2 and 4 was used as a reaction surface. Unmodified carboxymethyl dextran without goat anti-mouse IgG in flow cell 1 and 3 was used as the reference surface. For kinetic analysis, rate equations derived from the 1:1 Langmuir binding model were fitted simultaneously to association and dissociation phases of all eight injections (using global fit analysis) with the use of Biaevaluation 4.0.1 software. Purified antibodies were diluted in HEPES-buffered saline for capture across goat anti-mouse IgG specific reaction surfaces. Mouse antibodies to be captured as a ligand (25 μg/ml) were injected over reaction matrices at a flow rate of 5 μl/min. The association and dissociation rate constants, kₒₙ (unit M⁻¹ s⁻¹) and koff (unit s⁻¹) were determined under a continuous flow rate of 25 μl/min. Rate constants were derived by making kinetic binding measurements at ten different antigen concentrations ranging from 10-200 nM. The equilibrium dissociation constant (unit M) of the reaction between mouse antibodies and recombinant purified human IL-12 p70 or recombinant purified human IL-12 p40 was then calculated from the kinetic rate constants by the following formula: KD=koff/kₒₙ. Binding is recorded as a function of time and kinetic rate constants are calculated. In this assay, on-rates as fast as 10⁶M⁻¹ s⁻¹ and off-rates as slow as 10⁻⁶ can be measured. […]

[2] = target: T1, recombinant purified human IL-12 p70; assay: cell-based or functional assay
[3] = target: T2, recombinant purified cyno IL-12 p70 (cynomolgus monkey); assay: cell-based or functional assay
T2 chain 1: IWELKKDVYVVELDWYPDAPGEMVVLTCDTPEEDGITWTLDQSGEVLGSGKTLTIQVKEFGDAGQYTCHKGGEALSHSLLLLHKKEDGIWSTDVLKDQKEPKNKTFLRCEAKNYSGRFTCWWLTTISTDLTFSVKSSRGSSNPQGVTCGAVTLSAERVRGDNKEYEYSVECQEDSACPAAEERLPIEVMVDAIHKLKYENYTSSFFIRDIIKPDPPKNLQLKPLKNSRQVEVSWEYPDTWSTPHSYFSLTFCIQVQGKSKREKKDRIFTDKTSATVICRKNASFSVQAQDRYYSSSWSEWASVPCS
T2 chain 2: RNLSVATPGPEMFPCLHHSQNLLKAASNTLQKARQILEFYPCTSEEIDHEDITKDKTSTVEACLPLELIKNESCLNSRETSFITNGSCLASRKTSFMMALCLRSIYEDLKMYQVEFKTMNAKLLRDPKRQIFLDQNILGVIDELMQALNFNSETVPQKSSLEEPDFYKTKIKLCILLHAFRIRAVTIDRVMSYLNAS

B1: CDR grafted anti IL-12p40 antibody 1A6.2 (antibody, human IgG1, kappa, L234A L235A, V domains shown)
VH: EVTLKESGPVLVKPTETLTLTCTVSGFSLSTSGMGVSWIRQPPGKALEWLAHIWWDGDNYYNPSLKSRLTISKDTSKSQVVLTMTNMDPVDTATYYCARRTRVNYAMDYWGQGTTVTVSS
VL: EIVMTQSPATLSVSPGERATLSCKASQSVSNDVAWYQQKPGQAPRLLIYYASNRYTGIPARFSGSGSGTEFTLTISSLQSEDFAVYYCQQDYNSPWTFGGGTKVEIKR
notes: Full-length CDR-grafted antibody, COS cells
With B1 the Kd [1] was 0.54 nM, the koff [1] was 5.4e-05 s⁻¹ and the kon [1] was 100000 M⁻¹ s⁻¹. The “Av. IC50 (nM) Hu IL-12, PHA blast assay” value [2] was 1.1 nM and the “Av. IC50 (nM) Cyno IL-12, PHA blast assay” value [3] was 0.84 nM.

B2: CDR grafted anti IL-12p40 antibody 3G7.2 (antibody, human IgG1, kappa, L234A L235A, V domains shown)
VH: EVQLVQSGAEVKKPGASVKVSCKASGYTFTDYWIEWVRQAPGQGLEWMGGFSHGSGSTNYNEKFKGRVTMTTDTSTSTAYMELRSLRSDDTAVYYCARRRFRGMDYWGQGTTVTVSS
VL: B1 VL with N93S, T97S
notes: as for B1
With B2 the Kd [1] was 0.23 nM, the koff [1] was 0.00014 s⁻¹ and the kon [1] was 610000 M⁻¹ s⁻¹. For the same binder, the “Av. IC50 (nM) Hu IL-12, PHA blast assay” value [2] was 0.24 nM and the “Av. IC50 (nM) Cyno IL-12, PHA blast assay” value [3] was 0.7 nM.

B3: CDR grafted anti IL-12p40 antibody 1A6.5 (antibody, human IgG1, kappa, L234A L235A, V domains shown)
VH: B1 VH with K5R, V10A, E16Q, V24F, S78N
VL: B1 VL
notes: as for B1
With B3 the Kd [1] was 0.43 nM, the koff [1] was 5.6e-05 s⁻¹ and the kon [1] was 130000 M⁻¹ s⁻¹. The “Av. IC50 (nM) Hu IL-12, PHA blast assay” value [2] was 1.9 nM and the “Av. IC50 (nM) Cyno IL-12, PHA blast assay” value [3] was 1.1 nM.

B4: CDR grafted anti IL-12p40 antibody 1D4.1 (antibody, human IgG1, kappa, L234A L235A, V domains shown)
VH: EVTLRESGPALVKPTQTLTLTCTFSGFSLSKSVMGVSWIRQPPGKALEWLAHIYWDDDKYYNPSLKSRLTISKDTSKNQVVLTMTNMDPVDTATYYCARRGIRSAMDYWGQGTTVTVSS
VL: DIVMTQSPDSLAVSLGERATINCKASQSVSNDVAWYQQKPGQPPKLLIYYASNRYTGVPDRFSGSGSGTDFTLTISSLQAEDVAVYYCQQDYNSPWTFGGGTKVEIKR
notes: as for B1
In the case of B4, the Kd [1] is reported as 0.12 nM, the koff [1] is reported as 2.9e-05 s⁻¹ and the kon [1] is reported as 260000 M⁻¹ s⁻¹. For the same binder, the “Av. IC50 (nM) Hu IL-12, PHA blast assay” value [2] was 0.47 nM and the “Av. IC50 (nM) Cyno IL-12, PHA blast assay” value [3] was 1.5 nM.

B5: CDR grafted anti IL-12p40 antibody 3G7.1 (antibody, human IgG1, kappa, L234A L235A, V domains shown)
VH: B2 VH with A16S, Y27G, T30S, M70I, T72A, T74K, R84S, D89E
VL: B4 VL with N93S, T97S
notes: as for B1
In the case of B5, the Kd [1] is reported as 0.22 nM, the koff [1] is reported as 9.1e-05 s⁻¹ and the kon [1] is reported as 420000 M⁻¹ s⁻¹. For the same binder, the “Av. IC50 (nM) Hu IL-12, PHA blast assay” value [2] was 0.56 nM and the “Av. IC50 (nM) Cyno IL-12, PHA blast assay” value [3] was 1.2 nM.

B6: CDR grafted anti IL-12p40 antibody 1D4.2 (antibody, human IgG1, kappa, L234A L235A, V domains shown)
VH: B4 VH with R5K, A10V, Q16E, F24V, N78S
VL: B1 VL
notes: as for B1
Binder B6 has a Kd [1] of 1.7 nM, a koff [1] of 0.00026 s⁻¹ and a kon [1] of 160000 M⁻¹ s⁻¹. The “Av. IC50 (nM) Hu IL-12, PHA blast assay” value [2] was 3 nM and the “Av. IC50 (nM) Cyno IL-12, PHA blast assay” value [3] was 3 nM.

B7: CDR grafted anti IL-12p40 antibody 1A6.1 (antibody, human IgG1, kappa, L234A L235A, V domains shown)
VH: B1 VH with K5R, V10A, E16Q, V24F, S78N
VL: B4 VL
notes: as for B1
B7 showed a Kd [1] of 0.27 nM, a koff [1] of 2.9e-05 s⁻¹ and a kon [1] of 110000 M⁻¹ s⁻¹. The “Av. IC50 (nM) Hu IL-12, PHA blast assay” value [2] was 0.48 nM and the “Av. IC50 (nM) Cyno IL-12, PHA blast assay” value [3] was 0.57 nM.

B8: CDR grafted anti IL-12p40 antibody 1A6.6 (antibody, human IgG1, kappa, L234A L235A, V domains shown)
VH: B1 VH
VL: B4 VL
notes: as for B1
In the case of B8, the “Av. IC50 (nM) Hu IL-12, PHA blast assay” value [2] is reported as 0.59 nM and the “Av. IC50 (nM) Cyno IL-12, PHA blast assay” value [3] is reported as 0.14 nM.

B9: CDR grafted anti IL-12p40 antibody 1D4.3 (antibody, human IgG1, kappa, L234A L235A, V domains shown)
VH: B4 VH
VL: B1 VL
notes: as for B1
B9 gave a Kd [1] of 0.25 nM, a koff [1] of 5.3e-05 s⁻¹ and a kon [1] of 210000 M⁻¹ s⁻¹. For the same binder, the “Av. IC50 (nM) Hu IL-12, PHA blast assay” value [2] was 0.83 nM and the “Av. IC50 (nM) Cyno IL-12, PHA blast assay” value [3] was 1.6 nM.

B10: CDR grafted anti IL-12p40 antibody 8E1.1 (antibody, human IgG1, kappa, L234A L235A, V domains shown)
VH: EVQLVESGGGLVQPGGSLRLSCAASGFTFSDYGMVWVRQAPGKGLEWVGSISSGSSNIYYADTVKGRFTISRDDSKNSLYLQMNSLKTEDTAVYYCARNPYWGQGTTVTVSS
VL: DIQMTQSPSSLSASVGDRVTITCKASQNVGTNVAWYQQKPEKAPKSLIYSASHRYSGVPSRFSGSGSGTDFTLTISSLQPEDFATYYCQQYNSYPLTFGGGTKVEIKR
notes: as for B1
In the case of B10, the Kd [1] is reported as 1.7 nM, the koff [1] is reported as 0.00087 s⁻¹ and the kon [1] is reported as 520000 M⁻¹ s⁻¹. The “Av. IC50 (nM) Hu IL-12, PHA blast assay” value [2] was 2.8 nM and the “Av. IC50 (nM) Cyno IL-12, PHA blast assay” value [3] was 4.6 nM.
